The labels stand for the following.
B1: MKK6KIM peptide (peptide)
peptide: SQSKGKKRNPGLKIPKEAF
B2: full-length MKK6 (residues 1-334) (enzyme, UniProt P52564 1-334, looked up)
chain: MSQSKGKKRNPGLKIPKEAFEQPQTSSTPPRDLDSKACISIGNQNFEVKADDLEPIMELGRGAYGVVEKMRHVPSGQIMAVKRIRATVNSQEQKRLLMDLDISMRTVDCPFTVTFYGALFREGDVWICMELMDTSLDKFYKQVIDKGQTIPEDILGKIAVSIVKALEHLHSKLSVIHRDVKPSNVLINALGQVKMCDFGISGYLVDSVAKTIDAGCKPYMAPERINPELNQKGYSVKSDIWSLGITMIELAILRFPYDSWGTPFQQLKQVVEEPSPQLPADKFSAEFVDFTSQCLKKNSKERPTYPELMQHPFFTLHESKGTDVASFVKLILGD
B3: constitutively active MKK6 variant MKK6_(1-334)^S207ET211E (enzyme, UniProt P52564 1-334, looked up)
chain: MSQSKGKKRNPGLKIPKEAFEQPQTSSTPPRDLDSKACISIGNQNFEVKADDLEPIMELGRGAYGVVEKMRHVPSGQIMAVKRIRATVNSQEQKRLLMDLDISMRTVDCPFTVTFYGALFREGDVWICMELMDTSLDKFYKQVIDKGQTIPEDILGKIAVSIVKALEHLHSKLSVIHRDVKPSNVLINALGQVKMCDFGISGYLVDEVAKEIDAGCKPYMAPERINPELNQKGYSVKSDIWSLGITMIELAILRFPYDSWGTPFQQLKQVVEEPSPQLPADKFSAEFVDFTSQCLKKNSKERPTYPELMQHPFFTLHESKGTDVASFVKLILGD

The target in the experiment is mitogen-activated protein kinase p38α (residues 2-349) (human, UniProt Q16539 2-349). Kind of experiment: ITC. In general terms: ITC needs no label: the signal is the heat of the interaction.
mitogen-activated protein kinase p38α (residues 2-349), sequence (Q16539 2-349): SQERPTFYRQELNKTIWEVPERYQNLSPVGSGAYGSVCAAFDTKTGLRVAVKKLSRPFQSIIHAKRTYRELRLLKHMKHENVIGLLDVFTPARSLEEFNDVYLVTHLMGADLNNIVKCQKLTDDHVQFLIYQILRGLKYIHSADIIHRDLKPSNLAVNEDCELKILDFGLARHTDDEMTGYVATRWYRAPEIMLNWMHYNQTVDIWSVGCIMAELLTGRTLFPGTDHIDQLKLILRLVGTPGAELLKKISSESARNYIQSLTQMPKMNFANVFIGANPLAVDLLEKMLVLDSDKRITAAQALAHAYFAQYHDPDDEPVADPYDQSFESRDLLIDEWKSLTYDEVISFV
Regarding B1, binding was characterised by a dissociation constant (Kd) of 7 ± 2 µM.

On to B2, for which the affinity, expressed as Kd, was 2 ± 0.1 µM.

For B3, binding was put at a Kd of 3.5 ± 1.4 µM.

The record behind these values is paper doi:10.1101/2020.11.26.395038 (bioRxiv, 2020).
